{"source": "patent US20220135694A1", "about": "“NOVEL CD40-BINDING ANTIBODIES” (LAVA THERAPEUTICS B.V., priority 2019, published 2022)", "key": {"Vγ9Vδ2+ cells": {"molecular_target": "T1, Vγ9Vδ2+ cells (Homo sapiens, UniProt A0JD36)", "T1 construct": "endogenous in cells; host or cells: healthy donor-derived, expanded Vγ9Vδ2-T cell lines", "T1 sequence (A0JD36 20-115)": "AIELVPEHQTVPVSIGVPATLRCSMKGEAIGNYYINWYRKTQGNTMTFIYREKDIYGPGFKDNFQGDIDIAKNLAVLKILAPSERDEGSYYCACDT", "assay": "Bispecific VHH binding to Vγ9Vδ2-T cell lines, flow cytometry, non-linear regression", "conditions": "FIGS. 6A and B, read-out: apparent Kd", "description": "The CLL-derived cell line CII was grown in complete IMDM. Purified Vγ9Vδ2-T cell lines were generated as described previously (de Bruin et al. (2017), Oncoimmunology 7(1): e1375641). In short, Vδ2^+-T cells were isolated from healthy donor (HD) PBMCs using FITC-conjugated anti-Vδ2 TCR (2257030, Sony, San Jose, Calif.) in combination with anti-mouse IgG microbeads (Miltenyi Biotec, Bergisch Gladbach, Germany) and cultured weekly with irradiated feeder mix consisting of PBMCs from 2 HDs, JY cells, IL-7 (10 U/mL), IL-15 (10 ng/mL, R&D Systems) and phytohaemagglutinin (PHA; R30852801, Thermo Fisher Scientific).\nPurity of Vγ9Vδ2-T cell lines was maintained at >90%.\nVHH binding was tested as described in Example 6.\nAfter 48 hours, cells were analyzed by flow cytometry as described in Example 2."}, "[1]": {"system": "Vγ9Vδ2-T cells from CLL patients", "assay": "Cytokine and degranulation assay: autologous Vγ9Vδ2-T cells from CLL patients", "assay_type": "cell-based, human", "conditions": "10 nM, overnight with autologous CLL cells", "description": "PBMCs from CLL patients were obtained, cryopreserved and thawed as described in Example 3.\nCLL PBMCs were partially depleted of CD19^+ CLL cells using magnetic beads (130-050-301, Miltenyi Biotec. ±50% of the PBMCs were CD19^+ after CD19 depletion). PBMCs were then cultured overnight with V19S76K-5C8 (10 nM) or medium control in the presence of Brefeldin A, GolgiStop and anti-CD107a to measure cytokine production and degranulation as described in Example 11. In contrast to Example 11, surface staining included PE-conjugated anti-Vγ9-TCR (2256535, Sony) and FITC-conjugated goat-anti-Ilama IgG-heavy and light chain antibodies (A160-100F, Bethyl Laboratories Inc.)"}}, "data": [{"molecule": "V19S76K-5C8: tag-less bispecific anti-CD40-anti-Vγ9Vδ2-TCR VHH, SEQ ID NO:23 (protein, antibody sequence) VHH: QVQLQESGGGLVQAGGSLRLSCAASGRTFGRSAMGWFRQAPGKEREFVAAIGTRGGSTKYADSVKGRFTISTDNAKNTVYLQMDSLKPEDTAVYRCAVRGPGYPSAAIFQDEYHYWGQGTQVTVSSGGGGSEVQLVESGGGLVQAGGSLRLSCAASGRPFSNYAMGWFRQAPGKEREFVAAISWSGGSTSYADSVKGRFTISRDNAKNTVYLQMNSPKPEDTAIYYCAAQFSGADYGFGRLGIRGYEYDYWGQGTQVTVSS", "values": [{"measurement": "Kd", "setting": "Vγ9Vδ2+ cells", "result": 1.2, "unit": "nM"}, {"measurement": "production of IFN-γ, TNF-α and IL-2 by Vγ9Vδ2-T cells from CLL patients", "setting": "[1]; FIG. 15A-C", "result": "produced the cytokines IFN-γ"}, {"measurement": "Vγ9Vδ2-T cell degranulation (CD107a expression)", "setting": "[1]; FIG. 15D", "result": "induced Vγ9Vδ2-T cell degranulation"}]}]}
